Assay results: paper PMC5870055, “Structural and Mechanistic Analysis of the Choline Sulfatase from Sinorhizobium melliloti: A Class I Sulfatase Specific for an Alkyl Sulfate Ester” (Journal of Molecular Biology, 2018)

Target: the molecule itself
Test: SEC-MALS; 100 uL of 2 mg/mL protein on Superdex 200 10/300 HR in 100 mM Tris-HCl pH 8.0, 150 mM NaCl, 0.5 mL/min; multi-angle light scattering and differential refractive index detectors

Row | Protein | stoichiometry N
1 | SmCS Δ23 (truncated mutant lacking 23 C-terminal amino acids) (domain or fragment, Sinorhizobium meliloti 1021, UniProt O69787 1-489, looked up, Choline sulfatase (BetC) of S. meliloti 1021 with Glu490 replaced by a stop codon, so that the last 23 residues (490-512) are missing; Predominantly a dimer (78%); source: E. coli BL21(DE3) expressing MtbFGE, purified (Q-Sepharose, Strep-Tactin, Superdex 200)) MTTGKPNILIIMVDQLNGKLFPDGPADFLHAPNLKALAKRSARFHNNYTSSPLCAPARASFMAGQLPSRTRVYDNAAEYQSSIPTYAHHLRRAGYYTALSGKMHFVGPDQLHGFEERLTTDIYPADFGWTPDYRKPGERIDWWYHNLGSVTGAGVAEITNQMEYDDEVAFLANQKLYQLSRENDDESRRPWCLTVSFTHPHDPYVARRKFWDLYEDCEHLTPEVGAIPLDEQDPHSQRIMLSCDYQNFDVTEENVRRSRRAYFANISYLDEKVGELIDTLTRTRMLDDTLILFCSDHGDMLGERGLWFKMNFFEGSARVPLMIAGPGIAPGLHLTPTSNLDVTPTLADLAGISLEEVRPWTDGVSLVPMVNGVERTEPVLMEYAAEASYAPLVAIREGKWKYVYCALDPEQLFDLEADPLELTNLAENPRGPVDQATLTAFRDMRAAHWDMEAFDAAVRESQARRWVVYEALRNGAYYPWDHQPLQKAS | 2
2 | SmCS Δ12 (truncated mutant lacking 12 C-terminal amino acids) (domain or fragment, Sinorhizobium meliloti 1021, UniProt O69787 1-500, looked up, Choline sulfatase (BetC) of S. meliloti 1021 with Thr501 replaced by a stop codon, so that the last 12 residues (501-512) are missing; Predominantly a tetramer (87%), with some dimer (11%) and monomer (2%); Made from the pASK-IBA5plusSmCS WT plasmid by QuikChange; source: E. coli BL21(DE3) expressing MtbFGE, purified (Q-Sepharose, Strep-Tactin, Superdex 200)) MTTGKPNILIIMVDQLNGKLFPDGPADFLHAPNLKALAKRSARFHNNYTSSPLCAPARASFMAGQLPSRTRVYDNAAEYQSSIPTYAHHLRRAGYYTALSGKMHFVGPDQLHGFEERLTTDIYPADFGWTPDYRKPGERIDWWYHNLGSVTGAGVAEITNQMEYDDEVAFLANQKLYQLSRENDDESRRPWCLTVSFTHPHDPYVARRKFWDLYEDCEHLTPEVGAIPLDEQDPHSQRIMLSCDYQNFDVTEENVRRSRRAYFANISYLDEKVGELIDTLTRTRMLDDTLILFCSDHGDMLGERGLWFKMNFFEGSARVPLMIAGPGIAPGLHLTPTSNLDVTPTLADLAGISLEEVRPWTDGVSLVPMVNGVERTEPVLMEYAAEASYAPLVAIREGKWKYVYCALDPEQLFDLEADPLELTNLAENPRGPVDQATLTAFRDMRAAHWDMEAFDAAVRESQARRWVVYEALRNGAYYPWDHQPLQKASERYMRNHMNLD | 4
3 | Sinorhizobium meliloti choline sulfatase wild type (enzyme, Sinorhizobium meliloti 1021, UniProt O69787 1-512, looked up, Cys54 partially converted into formylglycine (fGly); modelled as cysteine and formyl glycine at 50% occupancy each, Choline sulfatase (BetC) of S. meliloti 1021; the whole gene (positions 1491-3029 of GenBank U39940) amplified from genomic DNA and cloned into pASK-IBA5plus; the C-terminal region is printed as residues 449-512; Protomer Mw ~61 kDa; also called SmCS; SmCS WT; source: E. coli BL21(DE3) expressing MtbFGE, purified (Q-Sepharose, Strep-Tactin, Superdex 200)) MTTGKPNILIIMVDQLNGKLFPDGPADFLHAPNLKALAKRSARFHNNYTSSPLCAPARASFMAGQLPSRTRVYDNAAEYQSSIPTYAHHLRRAGYYTALSGKMHFVGPDQLHGFEERLTTDIYPADFGWTPDYRKPGERIDWWYHNLGSVTGAGVAEITNQMEYDDEVAFLANQKLYQLSRENDDESRRPWCLTVSFTHPHDPYVARRKFWDLYEDCEHLTPEVGAIPLDEQDPHSQRIMLSCDYQNFDVTEENVRRSRRAYFANISYLDEKVGELIDTLTRTRMLDDTLILFCSDHGDMLGERGLWFKMNFFEGSARVPLMIAGPGIAPGLHLTPTSNLDVTPTLADLAGISLEEVRPWTDGVSLVPMVNGVERTEPVLMEYAAEASYAPLVAIREGKWKYVYCALDPEQLFDLEADPLELTNLAENPRGPVDQATLTAFRDMRAAHWDMEAFDAAVRESQARRWVVYEALRNGAYYPWDHQPLQKASERYMRNHMNLDTLEESKRYPRGE | 4
